According to paper PMC9347011, “Transcriptional and post-transcriptional regulation of ethylene biosynthesis by exogenous acetylsalicylic acid in kiwifruit”:

T1: AdWRKY29 (kiwifruit, UniProt A0A2R6PHX2 1-296)
T1 sequence: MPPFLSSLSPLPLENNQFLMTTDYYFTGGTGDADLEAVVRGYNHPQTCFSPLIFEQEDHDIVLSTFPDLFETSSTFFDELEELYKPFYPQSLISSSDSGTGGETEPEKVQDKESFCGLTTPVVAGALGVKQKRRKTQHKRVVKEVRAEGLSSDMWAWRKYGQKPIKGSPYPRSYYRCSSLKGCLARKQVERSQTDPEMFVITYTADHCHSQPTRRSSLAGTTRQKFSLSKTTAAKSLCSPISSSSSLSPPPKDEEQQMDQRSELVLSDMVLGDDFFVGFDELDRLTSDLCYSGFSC


Assays:
Settings in all cases: protein: recombinant; tags: GST (pGEX-4T-1); label: 3'-biotin
[1] = molecular target: T1, AdWRKY29; assay: EMSA; LightShift Chemiluminescent EMSA kit (Thermo); 3'-biotin dsDNA probes, 20- and 500-fold unlabeled competitor; buffer, salt, pH and temperature not stated
[2] = molecular target: AdERF105L (kiwifruit, UniProt A0A2R6RWH8 1-269); assay: EMSA; reduced by 20- and 500-fold unlabeled probe; LightShift Chemiluminescent EMSA kit (Thermo); 3'-biotin dsDNA probes, 20- and 500-fold unlabeled competitor; buffer, salt, pH and temperature not stated
Chain of AdERF105L (A0A2R6RWH8 entry or part of it): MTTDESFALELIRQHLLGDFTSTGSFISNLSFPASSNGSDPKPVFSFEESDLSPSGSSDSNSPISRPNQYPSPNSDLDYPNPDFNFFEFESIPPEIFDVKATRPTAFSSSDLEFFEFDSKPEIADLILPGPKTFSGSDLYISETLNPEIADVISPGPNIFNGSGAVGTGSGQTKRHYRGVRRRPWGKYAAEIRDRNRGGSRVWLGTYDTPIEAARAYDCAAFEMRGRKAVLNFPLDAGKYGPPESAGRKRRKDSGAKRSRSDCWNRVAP

[3] = molecular target: T1, AdWRKY29; assay: as above

Row | Binder | binding result [2] | further results
1 | AdACO5 promoter W-box mutant probe (dsDNA) DNA 1: AACAAAGTCCAGAAAAAAACTTTAATTTCC DNA 2: GGAAATTAAAGTTTTTTTCTGGACTTTGTT | – | binding result [1]: no binding
2 | AdACS2 promoter DRE probe (dsDNA) DNA 1: CTAAGATTTGCTGTCGGTATGGCTCTCAT DNA 2: ATGAGAGCCATACCGACAGCAAATCTTAG | binds | –
3 | AdACO5 promoter W-box probe (dsDNA) DNA 1: AACAAAGTCCAGTTGACCACTTTAATTTCC DNA 2: GGAAATTAAAGTGGTCAACTGGACTTTGTT | – | binding result [3]: binds
4 | AdACS1 promoter DRE probe (dsDNA) DNA 1: CTGCGATTTGCCGTCGGTACGACTCTCATC DNA 2: GATGAGAGTCGTACCGACGGCAAATCGCAG | binds | –
